Data taken from paper PMC3702667 (Nature structural & molecular biology, 2013).

B1: untagged recombinant Rpb1_(1168–1302) (domain or fragment)
chain: not shown
B2: RECQL5 IRI domain (residues 490–620) (domain or fragment)
chain: GSGDEGRDEAHKREWNLFYQKQMQLRKGKDPKIEEFVPPDENCPLKEASSRRIPRLTVKAREHCLRLLEEALSSNRQSTRTADEADLRAKAVELEHETFRNAKVANLYKASVLKKVADIHRASKDGQPYDM
B3: GST–RECQL5_(490–620) (domain or fragment)
chain: B2 chain
B4: GST–tagged Rpb1_(1168–1302) (domain or fragment)
chain: not shown

What was measured:
Experiment in all cases: pull-down
GST–fused RECQL5_(1–620) = GST–fused RECQL5_(1–620) (human, UniProt O94762 1-620)
[1] = molecular target: B4
[2] = molecular target: B1
RECQL5_(1–620) = RECQL5_(1–620) (human, UniProt O94762 1-620)

Binder: B1
- binding result (GST–fused RECQL5_(1–620)): binds

Binder: B2
- binding result [1]: binds

Binder: B3
- binding result [2]: binds

Binder: B4
- binding result (RECQL5_(1–620)): binds
